The values below come from publication doi:10.1101/2022.12.14.520480 (bioRxiv, 2022).

The experiment deals with GST-LC3B (UniProt Q9GZQ8 1-120). Put plainly: pull-down.

B1: MYC-tagged LIMP2 wild type (natural protein)
chain: MGRCCFYTAGTLSLLLLVTSVTLLVARVFQKAVDQSIEKKIVLRNGTEAFDSWEKPPLPVYTQFYFFNVTNPEEILRGETPRVEEVGPYTYRELRNKANIQFGDNGTTISAVSNKAYVFERDQSVGDPKIDLIRTLNIPVLTVIEWSQVHFLREIIEAMLKAYQQKLFVTHTVDELLWGYKDEILSLIHVFRPDISPYFGLFYEKNGTNDGDYVFLTGEDSYLNFTKIVEWNGKTSLDWWITDKCNMINGTDGDSFHPLITKDEVLYVFPSDFCRSVYITFSDYESVQGLPAFRYKVPAEILANTSDNAGFCIPEGNCLGSGVLNVSICKNGAPIIMSFPHFYQADERFVSAIEGMHPNQEDHETFVDINPLTGIILKAAKRFQINIYVKKLDDFVETGDIRTMVFPVMYLNESVHIDKETASRLKSMINTTLIITNIPYIIMALGVFFGLVFTWLACKGQGSMDEGTADERAPLIRT
On to B1, for which the binding result is “binds”.
